Measurements from the RNAGym collection of RNA variant scans (doi:10.7554/elife.90254).

B1: LINE1-full (parent)
chain: UACGUAGGUGGUUUUCCCCUGAUAGUGCUAAGGGGGCCUGGAAGUUUGGACUGGGCAGAGCUCAACACAGCGUGGCAAAGUGGCUGUGGCUAGACUGCCUCUCUGGAUUCCUCGUCACUCAGCAGGGCAUCUCUGAGAGAAAUGCC

Variants of: B1
Assay: self-cleavage, relative activity (ratio to wild type); higher = more cleavage; in vitro, sequencing; the parent is a self-cleaving ribozyme

In order of falling self-cleavage:
1. UACAUAGGUGGUUUUCCCCUGAUAGUGCUAAGGGGGCCUGGAAGUUUGGACUGGGCAGAGCUCAACACAGCGCGGCAAAGUGGCUGUGGCUAGACUGCCUCUCUGGAUUCCUCGUCACUCAGCAGGGCAUCUCUGAGAGAAAUGCC [G4A U73C]  1.68
2. UACGUAGGUGGUUUUCCCCUGAUAGUGCUAAGGGGGCCUGGAAGUUUGGACUGGGCAGAGCUCAACACAGCGUGGCAAAGUGGCUGUGGCUAGACUGCCUCUCUGGAUUCCUCGUCACCCAGCAGUGCAUCUCUGAGAGAAAUGCC [U119C G126U]  1.67
3. UACGUAGGUGGUUUUCCCCUGAUAGUGCUAAGGGGGCCUGGAAGUUUGGACUGGGCAGAGCUCAACACAGCGUGGCAAAGUGGCUGUGGCUAGACUGCCUCUCUGGACUCCUCGUCACUCAGCAGGGCAUCUCUGAGAGAAAUGCC [U108C]  1.64
4. UACGUAGGUGGUUUUCCCCUGAUAGUGCUAAGGGGGCCUGGAAGUUUGGACUGGGCAGAGCUCAACACAGCGUGGCAAAGUGGCUGUGGCUAGACUGCCUCUCUGGAUUCCUCGUCACUCAGCAGGGCAUAUCUAAGAGAAAUGCC [C131A G135A]  1.55
5. UACGUAGGUGGUUUUCCCCUGAUAGUGCUGAGGGGGCCUGGAAGUUUGGACCGGGCAGAGCUCAACACAGCGUGGCAAAGUGGCUGUGGCUAGACUGCCUCUCUGGAUUCCUCGUCACUCAGCAGGGCAUCUCUGAGAGAAAUGCC [A30G U52C]  1.53
6. UACGUAGGUGGUUUUCCCCUGAUAGUGCUAAGGGGGCCUGGAAGUUUGGACUGGGCAGAGCUCAACACAGCGUGGCAAAGUGGCUGUGGCUAGACUGCCUCUCUGGAUUCCCCGUCGCUCAGCAGGGCAUCUCUGAGAGAAAUGCC [U112C A117G]  1.42
7. UACGUAGGUGGUUUUCCCCUGAUAGUGCUAAGGGGGCCUGGAAGUUUGGACUGGGCAGAGCUCAACACAGCGUGGCAAAGUGGCUGUGGCUAGACUGCCUCUCUGGAUACCACGUCACUCAGCAGGGCAUCUCUGAGAGAAAUGCC [U109A U112A]  1.35
8. UACGUAGGUGGAUUUCCCCUGAUAGUGCUAAGGGGGCCUGGAAGGUUGGACUGGGCAGAGCUCAACACAGCGUGGCAAAGUGGCUGUGGCUAGACUGCCUCUCUGGAUUCCUCGUCACUCAGCAGGGCAUCUCUGAGAGAAAUGCC [U12A U45G]  1.33
9. UACGUAGGUGGGUUUCCCCUGACAGUGCUAAGGGGGCCUGGAAGUUUGGACUGGGCAGAGCUCAACACAGCGUGGCAAAGUGGCUGUGGCUAGACUGCCUCUCUGGAUUCCUCGUCACUCAGCAGGGCAUCUCUGAGAGAAAUGCC [U12G U23C]  1.32
10. UACGUAGGUGGUUUUCCCCUGAAAGUGCUAAGGGGGCCUGGAAGUUUGGACUGGGCAGAGCUCAACACAGCGUGGCAAAGUGGCUGUGGCUAGACUGCCUCUCUGGAUUCCUCGUCACUCAGCAGGGCAUCUCUGGGAGAAAUGCC [U23A A136G]  1.31
11. UACGUAGGUGGUCUUCCCCUGAUAGUGCUAAGGGGGCCUGGAAGUUUGGACUGGGCAGAGCUCAACACAGCGUGGCAAAGUGGCUGUGGCUAGACUGCCUCUCUGGAUUACUCGUCACUCAGCAGGGCAUCUCUGAGAGAAAUGCC [U13C C110A]  1.29
12. UACGUAGGUGGUUUUCCCCUGAUAGUGCUAAGGGGGCCUGGAAGUUUGGACUGGGCAGAGCUCAACACAGCGUGGCAAAGUGGCUGUGGCUAGACUGCCUCUCUGGAUUCCCCGUCACUCAGCAGGGCAUCUCUGAAAGAAAUGCC [U112C G137A]  1.17
13. UAUGUAGGUGGUUUUCCCCUGAUAGUGCUAAGGGGGCCUGGAAGUUUGGACUGGGCAGAGCUCAACACAGCGUGGCAAAGUGGCUGUGGCUAGACUGCCUCUCUGGUUUCCUCGUCACUCAGCAGGGCAUCUCUGAGAGAAAUGCC [C3U A107U]  1.17
14. UACGUAGGUGGUUUUCCCCUGAUAGUGCUAAGGGGGCCUGGAAGUUUGAACUGGGCAGAGCUCAACACAGCGUGGCAAAGUGGCUGUGGCUAGACUGCCUCUCUGGAUUCCUCGUCACUCAGCAGGGCAUCUCUGAGGGAAAUGCC [G49A A138G]  1.11
15. UACGUAGGUGGUUUUCCCCUGAUAGUGCUAAGGGGGCCUGGAAGUUUGGACUGGGCAGAGCUCAACACAGCGUGGCAAAGUGGCUGUGGCUAGACUGCCUCUUUGGAUUCCUCGUCACUCAGCAGGGCAUCUCUGAGUGAAAUGCC [C103U A138U]  1.07
16. UACGUAGGUGGUUUUCCCCUGAUAGUGCUAAGGGGGCCUGGAAGUUUGGACUGGGCAGUGCUCAACACAGCGUGGCAAAGUGGCUGUGGCUAGACUGCCUCUCUGGAUUCCUCGUCACUCAGCAGGGCAUCUCUGAGAGAUAUGCC [A59U A141U]  1.03
17. UACGUAGGUGGUUUUCCCCUGAUAGUGCUAAGGGGGCCUGGAAGUUUGGACUGAGCAGAGCUCAACACAGCGUGGCAAAGUGGCUGUGGCUAGACUGCCUCUCUGGAUUCCUCGGCACUCAGCAGGGCAUCUCUGAGAGAAAUGCC [G54A U115G]  1.02
18. UACGUAGGUGGUUUUCCCCUGAUAGUGCUAAGGGGGCCUGGAAGUUUGGACUGGGCAGAGCUCAACACAGCGUGGCAAAGUGGCUGUGGCUAGACUGCCUCUCUGGAUUCCGCGUCACUCAGCAGGGCAUCUCUGUGAGAAAUGCC [U112G A136U]  0.88
19. UACGAAGGUGGUUUUCCCCUGAUAGUGCUAAGGGGGCCUGGAAGUUUGGACUGGGCGGAGCUCAACACAGCGUGGCAAAGUGGCUGUGGCUAGACUGCCUCUCUGGAUUCCUCGUCACUCAGCAGGGCAUCUCUGAGAGAAAUGCC [U5A A57G]  0.83
20. UACGUAGGUGGUUUUCCCCUGAUAGUGCUAAGGGGGCCUGGAAGAUUGGACUGGGCAGAGCUCAACACAGCGUGGCAAAGUGGCUGUGGCUAGACUGCCUCUCUGGAUUCCUCGUCUCUCAGCAGGGCAUCUCUGAGAGAAAUGCC [U45A A117U]  0.76
21. UACGUAGGUGGUUCUCCCCUGAUAGUGCUAAGGGGGCCUGGAAGUUUGGACUGGGCAGAGCUCAACACAGCGUGGCAAAGUGGCUGUGGCUAGACUGCCUCUCUGGAUGCCUCGUCACUCAGCAGGGCAUCUCUGAGAGAAAUGCC [U14C U109G]  0.65
22. UACGUAGGUGGUUUUUCCCUGAUAGUGCUAAGGGGGCCUGGAAGUUUGGACUGGGCAGAGCUCAACACAGCGUGGCAAAGUGGCUGUGGCUUGACUGCCUCUCUGGAUUCCUCGUCACUCAGCAGGGCAUCUCUGAGAGAAAUGCC [C16U A92U]  0.58
23. UACGUAGGUGGUUUUCCCCUGAUAGUGCUAAGGGGGCCUGGAAGUUCGGACUGGGCAGAGCUCAACACAGCGUGGCAAAGUGGCUGUGGCUAGGCUGCCUCUCUGGAUUCCUCGUCACUCAGCAGGGCAUCUCUGAGAGAAAUGCC [U47C A94G]  0.51
24. UACGUAGGUGGUUUUCCCCUGAUGGUGCUAAGAGGGCCUGGAAGUUUGGACUGGGCAGAGCUCAACACAGCGUGGCAAAGUGGCUGUGGCUAGACUGCCUCUCUGGAUUCCUCGUCACUCAGCAGGGCAUCUCUGAGAGAAAUGCC [A24G G33A]  0.35
25. UACGUAGGUGGUUUUCCCCUGAUAGUGCUAAGGGGGCCUGGAAGUCUGGACUGGGCAGAGCUCAACACAGCGUGGCAAAGUGGCUGUGGCUAGACCGCCUCUCUGGAUUCCUCGUCACUCAGCAGGGCAUCUCUGAGAGAAAUGCC [U46C U96C]  0.3
26. UACGUAGGUGGCUUUCCCCUGAUAGUGCUAAGGGGGCCUGGAAGUUUGGACUGGGCAGAGCUCGACACAGCGUGGCAAAGUGGCUGUGGCUAGACUGCCUCUCUGGAUUCCUCGUCACUCAGCAGGGCAUCUCUGAGAGAAAUGCC [U12C A64G]  0.28
27. UACGUAGGUGGGUUUCCCCUGAUAGUGCUAAGGGGGCCUGGAAGUUUGGACUGGGCAGAGCUCAGCACAGCGUGGCAAAGUGGCUGUGGCUAGACUGCCUCUCUGGAUUCCUCGUCACUCAGCAGGGCAUCUCUGAGAGAAAUGCC [U12G A65G]  0.23
28. UACGUAGGUGGUUUUCCCCUGAUAGUGCUAAGGGGGCCUGGAAGUUUGGACUGGGCAGAGCUCAACACAGCGUGGCAAGGUGGCUGUGGCUAGACCGCCUCUCUGGAUUCCUCGUCACUCAGCAGGGCAUCUCUGAGAGAAAUGCC [A79G U96C]  0.16
29. UACGUAGGCGGUUUUCCCCUGAUAGUGCUAAGGGGGCCUGGAAGUUUGGACUGGGCAGAGCUCAGCACAGCGUGGCAAAGUGGCUGUGGCUAGACUGCCUCUCUGGAUUCCUCGUCACUCAGCAGGGCAUCUCUGAGAGAAAUGCC [U9C A65G]  0.16
30. UACGUAGGUGGUUUUCCCCUGAUAGUGCUAAGGGGGCCUGGAAGUUUGGACUGGGCAGAGCUCAACACAGCGUGGCAAAGUGGCUGUAGCUAGACUGCCUCUCCGGAUUCCUCGUCACUCAGCAGGGCAUCUCUGAGAGAAAUGCC [G88A U104C]  0.15
31. UACGUAGGUGGUUUUCCCCUGAUAGUGCUAAGGGGGCCUGGAAGUUUGGACUGGGCAGAGCUCGACACAGCGUGGCAAAGUGGCUGUGGCUAGACUGCCUCUCUGGAUACCUCGUCACUCAGCAGGGCAUCUCUGAGAGAAAUGCC [A64G U109A]  0.14
32. UACGUAGGUGGUUUUCCCCUGAUAGUGCUAAGGGGGCCUGGAAGUUUGGACUGGGUAGAGCUCAACACAGCGUGGCAAAGUGGCCGUGGCUAGACUGCCUCUCUGGAUUCCUCGUCACUCAGCAGGGCAUCUCUGAGAGAAAUGCC [C56U U85C]  0.07
33. UACGUAGGUGGUUUUCCCCUGAUAGUGCUAAGGGGGCCUGGAAGUUUGGACUGGGCAGAGCCCAACACAGCGUGGCAAAGUGGCUGUGGCUAGCCUGCCUCUCUGGAUUCCUCGUCACUCAGCAGGGCAUCUCUGAGAGAAAUGCC [U62C A94C]  0.07
34. UACGUAGGUGGUUUUCCCCUGAUAGUGCUAAGGGGGCCUGGAAGUUCGGACUGGGCAGAGCUCAACACCGCGUGGCAAAGUGGCUGUGGCUAGACUGCCUCUCUGGAUUCCUCGUCACUCAGCAGGGCAUCUCUGAGAGAAAUGCC [U47C A69C]  0.07
35. UACGUAGGUGGUAUUCCCCUGAUAGUGCUAAGGGGGCCUGGAAGUUUGGACUGGGCAGGGCUCAACACAGCGUGGCAAAGUGGCUGUGGCUAGACUGCCUCUCUGGAUUCCUCGUCACUCAGCAGGGCAUCUCUGAGAGAAAUGCC [U13A A59G]  0.07
36. UACGUAGGUGGCUUUCCCCUGAUAGUGCUAAGGGGGCCUGGAAGUUUGGACUGGGCAGAGCUCAACACAGCGUGGCAAAGUGGCAGUGGCUAGACUGCCUCUCUGGAUUCCUCGUCACUCAGCAGGGCAUCUCUGAGAGAAAUGCC [U12C U85A]  0.06
37. UACGUAGGUGGUUUUCCCCUGAUAGUGCUAAGGGGGCCUGGAAGUUUGGACUGGGCAGAACUCAACACAGCGUGGCAAAGUGGCUGUGGCUAGACUGCCUCUCUGGAUUCCUCGUCACUCAGCAGGGCAUCUCUGAGAGAAGUGCC [G60A A142G]  0.04
38. UACGUAGGUGGUUUUCCCCUGAUAGUGCUAAGGGGGCCUGGAAGUUUGGACUGGGCAGAGCUCAACACAGUGUGGCAAAGUGGCUGUGGCUAGACAGCCUCUCUGGAUUCCUCGUCACUCAGCAGGGCAUCUCUGAGAGAAAUGCC [C71U U96A]  0.04
39. UACGUAGGUGGUUUUCCCCUGAUAGUGCUAAGGGGGCCUGGAAGUUUGGACUGGGCAGAGCCCAACACAGCGUGGCAAAGUGGCUGUGGCUAGAUUGCCUCUCUGGAUUCCUCGUCACUCAGCAGGGCAUCUCUGAGAGAAAUGCC [U62C C95U]  0.03
